Results from publication PMC3839042 (Biochemistry, 2013).
Like-named read-outs stand apart in the source and are kept apart here.

B1: human S100A2 (natural protein)
chain: not shown
B2: human S100P (natural protein, UniProt P25815 1-95, looked up)
chain: MTELETAMGMIIDVFSRYSGSEGSTQTLTKGELKVLMEKELPGFLQSGKDKDAVDKLLKDLDANGDAQVDFSEFIVFVAAITSACHKYFEKAGLK
B3: human S100B (natural protein, UniProt P04271 1-92, looked up)
chain: MSELEKAMVALIDVFHQYSGREGDKHKLKKSELKELINNELSHFLEEIKEQEVVDKVMETLDNDGDGECDFQEFMAFVAMVTTACHEFFEHE

How the values were obtained:
human S100P [1] = molecular target: B2; test: other fluorescence titration
human S100P [2] = molecular target: B2; test: ITC
human S100A2 [3] = molecular target: B1; test: ITC
Sequence of human S100A2 (P29034 whole entry): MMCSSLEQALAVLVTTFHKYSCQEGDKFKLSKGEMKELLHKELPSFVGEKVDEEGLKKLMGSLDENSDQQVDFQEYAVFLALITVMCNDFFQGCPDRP

human S100B [4] = molecular target: B3; test: other fluorescence titration
human S100B [5] = molecular target: B3; test: ITC
human S100A2 [6] = molecular target: B1; test: other fluorescence titration
[7] = molecular target: T1, TRTK12 wild-type peptide (Ac-…-NH2) (N-terminus acetylated; C-terminus amidated); test: stopped-flow fluorescence
[8] = molecular target: T1, TRTK12 wild-type peptide (Ac-…-NH2); test: ITC
[9] = molecular target: T1, TRTK12 wild-type peptide (Ac-…-NH2); test: other fluorescence titration
[10] = molecular target: T1, TRTK12 wild-type peptide (Ac-…-NH2); test: stopped-flow fluorescence; remark: listed apart in the source
[11] = molecular target: T1, TRTK12 wild-type peptide (Ac-…-NH2); test: other fluorescence titration; remark: listed apart in the source
[12] = molecular target: T1, TRTK12 wild-type peptide (Ac-…-NH2); test: ITC; remark: listed apart in the source
[13] = molecular target: T1, TRTK12 wild-type peptide (Ac-…-NH2); test: stopped-flow fluorescence; remark: listed apart in the source
[14] = molecular target: T1, TRTK12 wild-type peptide (Ac-…-NH2); test: other fluorescence titration; remark: listed apart in the source
[15] = molecular target: T1, TRTK12 wild-type peptide (Ac-…-NH2); test: stopped-flow fluorescence; remark: listed apart in the source
[16] = molecular target: T1, TRTK12 wild-type peptide (Ac-…-NH2); test: ITC; remark: listed apart in the source

Row | Binder | Kd (human S100P [1]) | Kd (human S100P [2]) | Kd (human S100A2 [3]) | Kd (human S100B [4]) | Kd (human S100B [5]) | Kd (human S100A2 [6]) | other results
1 | Ac-ARTKIDWNKILS-NH2 [TRTKM1 (Ac-ARTKIDWNKILS-NH2)] | 7 ± 3 µM | 2 ± 0.5 µM | 15.2 ± 1 µM | 0.2 ± 0.1 µM | 2.9 ± 1 µM | 16 ± 1 µM | –
2 | B1 | – | – | – | – | – | – | koff [7]: ≥ 250 s⁻¹; Kd [8]: 48 ± 3 µM; Kd [9]: 43 ± 9 µM
3 | Ac-TRTKIAWNKILS-NH2 [TRTKM6 (Ac-TRTKIAWNKILS-NH2)] | – | 7.4 ± 1 µM | 21.5 ± 4 µM | 5 ± 1 µM | 1.3 ± 0.6 µM | 23 ± 3 µM | –
4 | Ac-TRTKIDWNAILS-NH2 [TRTKM9 (Ac-TRTKIDWNAILS-NH2)] | 30 ± 10 µM | 7.1 ± 0.5 µM | 45 ± 2 µM | 2 ± 1 µM | 1.7 ± 0.1 µM | 17 ± 4 µM | –
5 | B2 | – | – | – | – | – | – | koff [10]: 286 s⁻¹; kon [10]: 5.6e+07 M⁻¹ s⁻¹; Kd [11]: 11 ± 1 µM; Kd [12]: 5.1 ± 0.3 µM
6 | Ac-TRTKADWNKILS-NH2 [TRTKM5 (Ac-TRTKADWNKILS-NH2)] | 100 ± 23 µM | 56.2 ± 4 µM | 131 ± 6.1 µM | 0.6 ± 0.6 µM | 1.2 ± 0.4 µM | – | –
7 | Ac-TRTKIDWNKIAS-NH2 [TRTKM11 (Ac-TRTKIDWNKIAS-NH2)] | – | 31.7 ± 0.5 µM | 504 ± 9.7 µM | 10 ± 3 µM | 3.8 ± 1 µM | – | –
8 | B3 | – | – | – | – | – | – | koff [13]: 53 s⁻¹; kon [13]: 3.1e+07 M⁻¹ s⁻¹; Kd [14]: 3 ± 1 µM; koff [15]: 86 s⁻¹; Kd [16]: 1.7 ± 0.1 µM
9 | Ac-TRTKIDWNKALS-NH2 [TRTKM10 (Ac-TRTKIDWNKALS-NH2)] | – | 43.1 ± 3.9 µM | – | – | – | – | –
